Measurements published in publication PMC9519457 (Nature Microbiology, 2022).

Experiments:
Test in all cases: BLI
Conditions in all cases: both partners purified
SARS-CoV-2 wild-type RBD [1] = target: T1, SARS-CoV-2 wild-type RBD (SARS-CoV-2 wild type)
SARS-CoV-2 wild-type RBD [2] = target: T1, SARS-CoV-2 wild-type RBD; remark: listed apart in the source
SARS-CoV-2 wild-type RBD [3] = target: T1, SARS-CoV-2 wild-type RBD; remark: listed apart in the source
[4] = target: SARS-CoV-2 RBD (residues 319-541), wild type (SARS-CoV-2, wild type, UniProt P0DTC2)
SARS-CoV-2 wild-type RBD [5] = target: T1, SARS-CoV-2 wild-type RBD; remark: listed apart in the source

Row | Binder | Kd (SARS-CoV-2 wild-type RBD [1]) [pM] | koff (SARS-CoV-2 wild-type RBD [1]) [s⁻¹] | kon (SARS-CoV-2 wild-type RBD [1]) [M⁻¹ s⁻¹] | other results
1 | C978 (antibody, V domains shown, human IgG1) VH: QVQLVQSGAEVKKPGSSVKVSCKASGATFSNYIISWVRQAPGQGLEWMGRTIPLLDIANYAQKFQGRVTITADKSTRIVYMHLGSLTSEDTAVYYCATGKGYSSSSAAYYFDHWGQGTLVTVSS VL: QSVLTQPPSVSGAPGQRVTISCTGTNSNIGAGYDIHWYQQLPGTAPKLLIYGSNNRPSGVPDRFSGSKSGTSASLAITGLQAEDEADYYCQSYDSSLSGSEVFGGGTKLTVL | 990 | 0.000524 | 531000 | –
2 | R1-32 (antibody, V domains shown, human IgG1) VH: EVQLVESGAEVKKPGSSVKVSCKASGGTFSSYAISWVRQAPGQGLEWMGGIIPILGIANYAQKFQGRVTITADKSTSTAYMELSSLRSEDTAVYYCARENGYSGYGAAANFDLWGRGTLVTVSS VL: QSVLTQPPSVSGAPGQRVTISCTGSSSNIGAGYDVHWYQQLPGTAPKLLIYGNSNRPSGVPDRFSGSKSGTSASLAITGLQAEDEADYYCQSYDSSLSGSVFGGGTKLTVL | – | – | – | koff (SARS-CoV-2 wild-type RBD [2]): 0.000376 s⁻¹; kon (SARS-CoV-2 wild-type RBD [2]): 472000 M⁻¹ s⁻¹; Kd (SARS-CoV-2 wild-type RBD [3]): 2800 pM; koff (SARS-CoV-2 wild-type RBD [3]): 0.00149 s⁻¹; kon (SARS-CoV-2 wild-type RBD [3]): 533000 M⁻¹ s⁻¹
3 | C092 (antibody, V domains shown, human IgG1) VH: QVQLVQSGAEVKKPGSSVKVSCKASGGSFTNHFISWVRQAPGQGLEWMGRIIPILGTANYAQNFQGRVMMTADKSTSTAYMELSSLRSEDTAVYYCARDSGYSGYGSTYYMDVWGKGTTVTVSS VL: QSVLTQPPSVSGAPGQRVTISCTGSNSNIGAGYDVHWYQQLPGAAPKLLIYGNNNRPSGVPDRFSGSKSDTSASLAITGLQVEDEADYYCQSYDSSLSDSVFGSGTKVTVL | 160 | 0.000103 | 642000 | –
4 | C091 (antibody, V domains shown, human IgG1) VH: QVQLVQSGAEVKKPGSSVKVSCKASGGTFSSYTISWVRQAPGQGLEWMGRIIPILGIANYAQKFQGRVTITADKSTSTAYMELSSLRSEDTAVYYCARDSGYSGYGSTYYMDVWGKGTTVTVSS VL: QSVLTQPPSVSGAPGQRVTISCTGSSSNIGAGYDVHWYQQLPGTAPKLLIYGNSNRPSGVPDRFSGSKSGTSASLAITGLQAEDEADYYCQSYDSSLSGSVFGTVTKVTVL | 9750 | 0.00337 | 346000 | –
5 | C807 (antibody, V domains shown, human IgG1) VH: QVQLVQSGAEAKKPGSSVKVSCKASGGTFKSYIINWVRQAPGQGLEWMGEIIPIFGTANYAQKFQGRVTSTADESTSTAYMELSSLKSEDTAVYYCARGRGYSGYGASYYFDYWGQGTLVTVSS VL: QSVLTQPPSVSGAPGQRVTISCTGSNSNIGAGYDVHWYQQLPGTAPKLLIYANSNRPSGVPDRFSGSKSGTSASLAITGLQAEDEADYYCQSYDSGLSGSVFGGGTKLTVL | 790 | 0.000431 | 547000 | –
6 | R1-32 (human IgG1 monoclonal antibody) (antibody, V domains shown) VH: EVQLVESGAEVKKPGSSVKVSCKASGGTFSSYAISWVRQAPGQGLEWMGGIIPILGIANYAQKFQGRVTITADKSTSTAYMELSSLRSEDTAVYYCARENGYSGYGAAANFDLWGRGTLVTVSS VL: QSVLTQPPSVSGAPGQRVTISCTGSSSNIGAGYDVHWYQQLPGTAPKLLIYGNSNRPSGVPDRFSGSKSGTSASLAITGLQAEDEADYYCQSYDSSLSGSVFGGGTKLTVL | – | – | – | Kd [4]: 800 pM
7 | C832 (antibody, V domains shown, human IgG1) VH: QVQLVQSGAEVKKPGSSVKVSCKASGGTFSSYSISWVRQAPGQGLEWMGRIIPILGIASYAQKFQGRVTITADKSTSTVYMELTGLRSDDTAVYYCARDRGYSDYGSHYYMDVWGKGTTVTVSS VL: QSVLTQPPSVSGAPGQRVTISCTGSSSNIGAGYDVHWYQQLPGTAPKLLIYINSNRPSGVPDRFSGSKSGTSASLAITGLQAEDEADYYCQSYDSSLSDSVFGGGTKLTVL | 630 | 0.000246 | 387000 | –
8 | FC08 (antibody, V domains shown) VH: QLLQQSGAEVKKPGSSVKVSCKASGGTFSSYAISWVRQAPGQGLEWMGGIIPIIGIANYAQKFQGRVTITADKSTSTAYMELSSLRSEDTAVYYCARERGYSGYGAAYYFDYWGQGTLVTVSS VL: SVLTQPPSVSGAPGQRVTISCTGSSSNIGAGYDVHWYQQLPGTAPKLLIYGNSNRPSGVPDRFSGSKSGTSASLAITGLQAEDEADYYCQSYDSSLSGSVFGGGTKLTVL | – | – | – | Kd (SARS-CoV-2 wild-type RBD [5]): 350 pM; koff (SARS-CoV-2 wild-type RBD [5]): 0.00028 s⁻¹; kon (SARS-CoV-2 wild-type RBD [5]): 797000 M⁻¹ s⁻¹
9 | C963 (antibody, V domains shown, human IgG1) VH: QVQLVQSGAEVKKPGSSVRVSCKASGGTFSSFTITWVRQAPGQGLEWMGRIIPNLNIPNYAQRFQGRITITAEKSTSTAYLELSSLRSEDTAVYYCARGVGYSGSGSNWYFDLWGRGTLVTVSS VL: QSVLTQPPSVSGAPGQRVTISCTGSSSNIGAGYDVHWYQQLPGTAPKLLISGHINRPSGVPDRFSGSTSGTSASLAITGLQAEDEADYYCQSYDSSLSDSVFGGGTKLTV | 840 | 0.000593 | 709000 | –
10 | C941 (antibody, V domains shown, human IgG1) VH: QVQLVQSGAEVKKPGSSVKVSCKASGGTSRSYPISWVRQAPGQGLEWMGRIIPIVGTANYAQRFQGRVTITADESTGTAYMELSSLRSEDTAVYYCARNRGYSDYGSVYYFDYWGQGTLVTVSS VL: QSVLTQPPSVSGAPGQRVTISCTGSSSNIGAGYDVHWYQQLPGAAPKLLIYRNINRPSGVPDRFSGSKSGTSASLAITGLQADDEADYYCQSYDSSLSGSVFGGGTKLTV | 770 | 0.000117 | 153000 | –
